Measured values: patent US20120190558A1

Molecular target: endogenous KCNH2-1A of rat cortical neurons (rat) (UniProt O08962)
Assay: cell-based or functional assay

Isoform 3.1 of KCNH2 (human) (from UniProt Q12809 103-1159)
deactivation time constant (tau) of E-4031-sensitive tail current, slow component, at -100 mV of command potential: 7.43 fold
fold decrease in deactivation time constant (tau) of E-4031-sensitive tail current, fast component, at -100 mV of command potential: 5.88 fold
